{
  "source": "patent US20030175735",
  "tested_on": "recombinant protein ACp5 (p5 cleavage site of the HIV protease inserted between amino acids 224 and 225 of the adenyl cyclase of B. pertussis)",
  "data": [
    {"substance": "wild-type protease of the HIV virus", "values": [
      {"measurement": "cleavage in vitro", "result": "The cleavage of ACp5 by the HIV protease was also shown in vitro"},
      {"measurement": "phenotype on McConkey maltose medium of DHT1 bacteria cotransformed with pKACp5 and pUCVIH", "result": "exhibit a Cya^- phenotype (white colonies on McConkey maltose medium) in the absence of protease inhibitors"}
    ]}
  ]
}
